# Assay results taken from patent US20260250325A1, “Antiviral Polypeptide Membrane Fusion Inhibitor, and Preparation Method and Application Thereof” (priority 2025, published 2026).
# T1: F protein of RSV A long virus strain (respiratory syncytial virus, RSV A long virus strain), P12568
# T1 chain: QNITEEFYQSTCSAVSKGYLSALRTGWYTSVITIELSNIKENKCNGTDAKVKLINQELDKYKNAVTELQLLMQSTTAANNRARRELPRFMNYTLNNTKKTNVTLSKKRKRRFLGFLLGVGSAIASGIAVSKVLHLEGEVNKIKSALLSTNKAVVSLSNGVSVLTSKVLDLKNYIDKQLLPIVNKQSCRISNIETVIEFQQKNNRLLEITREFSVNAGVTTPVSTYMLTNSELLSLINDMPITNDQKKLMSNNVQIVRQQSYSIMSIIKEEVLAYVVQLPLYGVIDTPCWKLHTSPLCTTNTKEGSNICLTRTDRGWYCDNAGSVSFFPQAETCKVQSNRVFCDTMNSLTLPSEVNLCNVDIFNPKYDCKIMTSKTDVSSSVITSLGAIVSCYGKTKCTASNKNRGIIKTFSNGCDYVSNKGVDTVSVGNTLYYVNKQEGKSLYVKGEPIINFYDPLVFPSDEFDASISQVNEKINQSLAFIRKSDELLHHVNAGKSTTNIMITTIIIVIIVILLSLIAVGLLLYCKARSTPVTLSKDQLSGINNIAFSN
# Molecular target: hPIV-N51 (139-189) (human parainfluenza virus (hPIV))
# Assay: not given
# hPIV-N51 (139-189) (human parainfluenza virus (hPIV)), sequence (P06828 139-189): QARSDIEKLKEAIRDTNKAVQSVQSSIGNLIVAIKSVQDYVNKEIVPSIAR
row,Binder,Kd
1,WDEFDKKIEEVNKKIEESLKKIEESDKKLHNVEAAAKK (modifications not checked) [Compound 44],6860 nM
2,WDEFDASISQVNEKINQSLEEIRKSDELLHNEAAAKK (modifications not checked) [Compound 45],178000 nM
3,SDELVNKKIEFDKKINQSLKKIEESDKKKLEAAAKK (modifications not checked) [Compound 51],51.4 nM
4,WDEFDKKIEEVNKKIEESLKKIEESDKKLEAAAKK (modifications not checked) [Compound 13],2280 nM
5,DEFDKKIEEVNKKIEESLKKIEESDKKLEEVNEAAAKK (modifications not checked) [Compound 14],495 nM
6,SDEFDKKIEEVNKKIEESLKKIEESDKKLEAAAKK (modifications not checked) [Compound 16],5400 nM
7,DEFDKKIEEVNKKIEESLKKIEESDKKLEAAAKK (modifications not checked) [Compound 17],314 nM
8,SDEFDKKIEEVNKKIEESLKKIEESDKKLGSGSGK (modifications not checked) [Compound 20],6800 nM
9,DEFDKKKIEEVNKKIEESLKKIEESDKKLEEVEAAAKK (modifications not checked) [Compound 22],20800 nM
10,YDELVFDASQVNEKINQSLEKIRKSDELLHNVGSGSGK (modifications not checked) [Compound 25],74600 nM

# Molecular target: T1, F protein of RSV A long virus strain …
# Assay: cell-based or functional assay
row,Binder,"IC50/nM, Cell fusion inhibition activity (plaque reduction, RSV A long strain, HEp-2 cells)"
1,WDEFDKKIEEVNKKIEESLKKIEESDKKLHNVEAAAKK (modifications not checked) [Compound 44],12.4 nM
2,WDEFDASISQVNEKINQSLEEIRKSDELLHNEAAAKK (modifications not checked) [Compound 45],12.2 nM
3,SDELVNKKIEFDKKINQSLKKIEESDKKKLEAAAKK (modifications not checked) [Compound 51],9.9 nM
4,WDEFDKKIEEVNKKIEESLKKIEESDKKLEAAAKK (modifications not checked) [Compound 13],13 nM
5,DEFDKKIEEVNKKIEESLKKIEESDKKLEEVNEAAAKK (modifications not checked) [Compound 14],9.9 nM
6,SDEFDKKIEEVNKKIEESLKKIEESDKKLEAAAKK (modifications not checked) [Compound 16],10.3 nM
7,DEFDKKIEEVNKKIEESLKKIEESDKKLEAAAKK (modifications not checked) [Compound 17],17.6 nM
8,SDEFDKKIEEVNKKIEESLKKIEESDKKLGSGSGK (modifications not checked) [Compound 20],19.8 nM
9,DEFDKKKIEEVNKKIEESLKKIEESDKKLEEVEAAAKK (modifications not checked) [Compound 22],11.3 nM
10,YDELVFDASQVNEKINQSLEKIRKSDELLHNVGSGSGK (modifications not checked) [Compound 25],28.7 nM

# Substrate: F protein of hMPV virus strain A2 (human metapneumovirus, strain A2)
# Assay: cell-based or functional assay
row,Binder,"EC50 (nM), plaque reduction, hMPV A2, Vero cells"
1,WDEFDKKIEEVNKKIEESLKKIEESDKKLHNVEAAAKK (modifications not checked) [Compound 44],14.6 nM
2,WDEFDASISQVNEKINQSLEEIRKSDELLHNEAAAKK (modifications not checked) [Compound 45],200 nM
3,SDELVNKKIEFDKKINQSLKKIEESDKKKLEAAAKK (modifications not checked) [Compound 51],18.8 nM
4,WDEFDKKIEEVNKKIEESLKKIEESDKKLEAAAKK (modifications not checked) [Compound 13],11.7 nM
5,DEFDKKIEEVNKKIEESLKKIEESDKKLEEVNEAAAKK (modifications not checked) [Compound 14],18.9 nM
6,SDEFDKKIEEVNKKIEESLKKIEESDKKLEAAAKK (modifications not checked) [Compound 16],7.35 nM
7,DEFDKKIEEVNKKIEESLKKIEESDKKLEAAAKK (modifications not checked) [Compound 17],8.78 nM
8,SDEFDKKIEEVNKKIEESLKKIEESDKKLGSGSGK (modifications not checked) [Compound 20],7.47 nM
9,DEFDKKKIEEVNKKIEESLKKIEESDKKLEEVEAAAKK (modifications not checked) [Compound 22],88.4 nM
10,YDELVFDASQVNEKINQSLEKIRKSDELLHNVGSGSGK (modifications not checked) [Compound 25],86.4 nM

# Substrate: F protein of hMPV virus strain B1 (human metapneumovirus, strain B1)
# Assay: cell-based or functional assay
row,Binder,"EC50 (nM), plaque reduction, hMPV B1, Vero cells"
1,WDEFDKKIEEVNKKIEESLKKIEESDKKLHNVEAAAKK (modifications not checked) [Compound 44],6.6 nM
2,WDEFDASISQVNEKINQSLEEIRKSDELLHNEAAAKK (modifications not checked) [Compound 45],13.1 nM
3,SDELVNKKIEFDKKINQSLKKIEESDKKKLEAAAKK (modifications not checked) [Compound 51],3.82 nM
4,WDEFDKKIEEVNKKIEESLKKIEESDKKLEAAAKK (modifications not checked) [Compound 13],6.18 nM
5,DEFDKKIEEVNKKIEESLKKIEESDKKLEEVNEAAAKK (modifications not checked) [Compound 14],5.36 nM
6,SDEFDKKIEEVNKKIEESLKKIEESDKKLEAAAKK (modifications not checked) [Compound 16],4.5 nM
7,DEFDKKIEEVNKKIEESLKKIEESDKKLEAAAKK (modifications not checked) [Compound 17],3.61 nM
8,SDEFDKKIEEVNKKIEESLKKIEESDKKLGSGSGK (modifications not checked) [Compound 20],4.27 nM
9,DEFDKKKIEEVNKKIEESLKKIEESDKKLEEVEAAAKK (modifications not checked) [Compound 22],18 nM
10,YDELVFDASQVNEKINQSLEKIRKSDELLHNVGSGSGK (modifications not checked) [Compound 25],38.1 nM

# Substrate: F protein of hPIV Type 3 (hPIV3 C243) (human parainfluenza virus type 3, strain C243)
# Assay: cell-based or functional assay
row,Binder,"EC50 (nM), plaque reduction, hPIV3 C243, LLC-MK2 cells"
1,WDEFDKKIEEVNKKIEESLKKIEESDKKLHNVEAAAKK (modifications not checked) [Compound 44],27.9 nM
2,WDEFDASISQVNEKINQSLEEIRKSDELLHNEAAAKK (modifications not checked) [Compound 45],36.3 nM
3,SDELVNKKIEFDKKINQSLKKIEESDKKKLEAAAKK (modifications not checked) [Compound 51],18.8 nM
4,WDEFDKKIEEVNKKIEESLKKIEESDKKLEAAAKK (modifications not checked) [Compound 13],35.6 nM
5,DEFDKKIEEVNKKIEESLKKIEESDKKLEEVNEAAAKK (modifications not checked) [Compound 14],31.4 nM
6,SDEFDKKIEEVNKKIEESLKKIEESDKKLEAAAKK (modifications not checked) [Compound 16],59 nM
7,DEFDKKIEEVNKKIEESLKKIEESDKKLEAAAKK (modifications not checked) [Compound 17],52.6 nM
8,SDEFDKKIEEVNKKIEESLKKIEESDKKLGSGSGK (modifications not checked) [Compound 20],59.5 nM
9,DEFDKKKIEEVNKKIEESLKKIEESDKKLEEVEAAAKK (modifications not checked) [Compound 22],65.4 nM
10,YDELVFDASQVNEKINQSLEKIRKSDELLHNVGSGSGK (modifications not checked) [Compound 25],29.4 nM
